Laboratory results published in patent US20260242735A1.

Key:
human CD33 S342A (human) = human CD33 S342A (human) (UniProt P20138); test: flow cytometry, HEK293-T, alanine scan
human CD33 M334A (human) = human CD33 M334A (human) (UniProt P20138); test: flow cytometry, HEK293-T, alanine scan
human CD33 S305A (human) = human CD33 S305A (human) (UniProt P20138); test: flow cytometry, HEK293-T, alanine scan
human CD33 A272S (human) = human CD33 A272S (human) (UniProt P20138); test: flow cytometry, HEK293-T, alanine scan
Sequence of human CD33 A272S (human) (P20138 18-364 A272S limits assumed): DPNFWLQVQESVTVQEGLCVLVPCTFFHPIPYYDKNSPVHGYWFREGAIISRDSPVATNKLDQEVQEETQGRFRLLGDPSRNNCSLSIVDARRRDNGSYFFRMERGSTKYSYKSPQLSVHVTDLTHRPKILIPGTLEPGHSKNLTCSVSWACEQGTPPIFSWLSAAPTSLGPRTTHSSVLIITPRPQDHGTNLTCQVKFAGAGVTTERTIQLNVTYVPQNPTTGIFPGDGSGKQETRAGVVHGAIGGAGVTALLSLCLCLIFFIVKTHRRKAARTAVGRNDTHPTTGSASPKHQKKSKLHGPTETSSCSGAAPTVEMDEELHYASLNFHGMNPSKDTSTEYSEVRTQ

human CD33 D298A (human) = human CD33 D298A (human) (UniProt P20138); test: flow cytometry, HEK293-T, alanine scan
Sequence of human CD33 D298A (human) (P20138 18-364 D298A limits assumed): as the sequence (P20138 18-364 A272S limits assumed) above, with S255A, D281A counted along it

human CD33 I281A (human) = human CD33 I281A (human) (UniProt P20138); test: flow cytometry, HEK293-T, alanine scan
human CD33 A341S (human) = human CD33 A341S (human) (UniProt P20138); test: flow cytometry, HEK293-T, alanine scan
human CD33 G304A (human) = human CD33 G304A (human) (UniProt P20138); test: flow cytometry, HEK293-T, alanine scan
human CD33 C274A (human) = human CD33 C274A (human) (UniProt P20138); test: flow cytometry, HEK293-T, alanine scan
Sequence of human CD33 C274A (human) (P20138 18-364 C274A limits assumed): as the sequence (P20138 18-364 A272S limits assumed) above, with S255A, C257A counted along it

human CD33 T303A (human) = human CD33 T303A (human) (UniProt P20138); test: flow cytometry, HEK293-T, alanine scan
human CD33 P301A (human) = human CD33 P301A (human) (UniProt P20138); test: flow cytometry, HEK293-T, alanine scan
Sequence of human CD33 P301A (human) (P20138 18-364 P301A limits assumed): as the sequence (P20138 18-364 A272S limits assumed) above, with S255A, P284A counted along it

human CD33 R296A (human) = human CD33 R296A (human) (UniProt P20138); test: flow cytometry, HEK293-T, alanine scan
Sequence of human CD33 R296A (human) (P20138 18-364 R296A limits assumed): as the sequence (P20138 18-364 A272S limits assumed) above, with S255A, R279A counted along it

human CD33 K309A (human) = human CD33 K309A (human) (UniProt P20138); test: flow cytometry, HEK293-T, alanine scan
Sequence of human CD33 K309A (human) (P20138 18-364 K309A limits assumed): as the sequence (P20138 18-364 A272S limits assumed) above, with S255A, K292A counted along it

human CD33 C325A (human) = human CD33 C325A (human) (UniProt P20138); test: flow cytometry, HEK293-T, alanine scan
human CD33 T292A (human) = human CD33 T292A (human) (UniProt P20138); test: flow cytometry, HEK293-T, alanine scan
human CD33 N344A (human) = human CD33 N344A (human) (UniProt P20138); test: flow cytometry, HEK293-T, alanine scan
human CD33 A328S (human) = human CD33 A328S (human) (UniProt P20138); test: flow cytometry, HEK293-T, alanine scan
human CD33 L316A (human) = human CD33 L316A (human) (UniProt P20138); test: flow cytometry, HEK293-T, alanine scan
human CD33 V294A (human) = human CD33 V294A (human) (UniProt P20138); test: flow cytometry, HEK293-T, alanine scan
human CD33 E336A (human) = human CD33 E336A (human) (UniProt P20138); test: flow cytometry, HEK293-T, alanine scan
human CD33 T284A (human) = human CD33 T284A (human) (UniProt P20138); test: flow cytometry, HEK293-T, alanine scan
human CD33 S326A (human) = human CD33 S326A (human) (UniProt P20138); test: flow cytometry, HEK293-T, alanine scan
human CD33 A306S (human) = human CD33 A306S (human) (UniProt P20138); test: flow cytometry, HEK293-T, alanine scan
human CD33 Q311A (human) = human CD33 Q311A (human) (UniProt P20138); test: flow cytometry, HEK293-T, alanine scan
Sequence of human CD33 Q311A (human) (P20138 18-364 Q311A limits assumed): as the sequence (P20138 18-364 A272S limits assumed) above, with S255A, Q294A counted along it

human CD33 L343A (human) = human CD33 L343A (human) (UniProt P20138); test: flow cytometry, HEK293-T, alanine scan
human CD33 H339A (human) = human CD33 H339A (human) (UniProt P20138); test: flow cytometry, HEK293-T, alanine scan
human CD33 K250A (human) = human CD33 K250A (human) (UniProt P20138); test: alanine scan, flow cytometry
human CD33 G249A (human) = human CD33 G249A (human) (UniProt P20138); test: alanine scan, flow cytometry
human CD33 L229A (human) = human CD33 L229A (human) (UniProt P20138); test: alanine scan, flow cytometry
human CD33 T211A (human) = human CD33 T211A (human) (UniProt P20138); test: alanine scan, flow cytometry
human CD33 G218A (human) = human CD33 G218A (human) (UniProt P20138); test: alanine scan, flow cytometry
Sequence of human CD33 G218A (human) (P20138 18-364 G218A limits assumed): as the sequence (P20138 18-364 A272S limits assumed) above, with G201A, S255A counted along it

human CD33 R225A (human) = human CD33 R225A (human) (UniProt P20138); test: alanine scan, flow cytometry
human CD33 G207A (human) = human CD33 G207A (human) (UniProt P20138); test: alanine scan, flow cytometry
Sequence of human CD33 G207A (human) (P20138 18-364 G207A limits assumed): as the sequence (P20138 18-364 A272S limits assumed) above, with G190A, S255A counted along it

human CD33 S248A (human) = human CD33 S248A (human) (UniProt P20138); test: alanine scan, flow cytometry
human CD33 N209A (human) = human CD33 N209A (human) (UniProt P20138); test: alanine scan, flow cytometry
human CD33 N230A (human) = human CD33 N230A (human) (UniProt P20138); test: alanine scan, flow cytometry
human CD33 A261S (human) = human CD33 A261S (human) (UniProt P20138); test: alanine scan, flow cytometry
Sequence of human CD33 A261S (human) (P20138 18-364 A261S limits assumed): as the sequence (P20138 18-364 A272S limits assumed) above, with A244S, S255A counted along it

human CD33 T223A (human) = human CD33 T223A (human) (UniProt P20138); test: alanine scan, flow cytometry
human CD33 D205A (human) = human CD33 D205A (human) (UniProt P20138); test: alanine scan, flow cytometry
human CD33 G266A (human) = human CD33 G266A (human) (UniProt P20138); test: alanine scan, flow cytometry
human CD33 Q204A (human) = human CD33 Q204A (human) (UniProt P20138); test: alanine scan, flow cytometry
human CD33 G245A (human) = human CD33 G245A (human) (UniProt P20138); test: alanine scan, flow cytometry
Sequence of human CD33 G245A (human) (P20138 18-364 G245A limits assumed): as the sequence (P20138 18-364 A272S limits assumed) above, with G228A, S255A counted along it

human CD33 T253A (human) = human CD33 T253A (human) (UniProt P20138); test: alanine scan, flow cytometry
human CD33 R254A (human) = human CD33 R254A (human) (UniProt P20138); test: alanine scan, flow cytometry
Sequence of human CD33 R254A (human) (P20138 18-364 R254A limits assumed): as the sequence (P20138 18-364 A272S limits assumed) above, with R237A, S255A counted along it

human CD33 P235A (human) = human CD33 P235A (human) (UniProt P20138); test: alanine scan, flow cytometry
human CD33 T240A (human) = human CD33 T240A (human) (UniProt P20138); test: alanine scan, flow cytometry
human CD33 L210A (human) = human CD33 L210A (human) (UniProt P20138); test: alanine scan, flow cytometry
human CD33 L270A (human) = human CD33 L270A (human) (UniProt P20138); test: alanine scan, flow cytometry
Sequence of human CD33 L270A (human) (P20138 18-364 L270A limits assumed): as the sequence (P20138 18-364 A272S limits assumed) above, with L253A, S255A counted along it

human CD33 I199A (human) = human CD33 I199A (human) (UniProt P20138); test: alanine scan, flow cytometry

Sequence of human CD33 S305A (human) (P20138 18-364 S305A limits assumed): as the sequence (P20138 18-364 A272S limits assumed) above, with S255A, S288A counted along it

Refmab #7 (WM53) (antibody)
Mean % WT Binding (human CD33 S342A (human)): 95.2 % WT binding | Mean % WT Binding (human CD33 M334A (human)): 93.9 % WT binding | Mean % WT Binding (human CD33 S305A (human)): 106 % WT binding | Mean % WT Binding (human CD33 A272S (human)): 113 % WT binding | Mean % WT Binding (human CD33 D298A (human)): 86.5 % WT binding | Mean % WT Binding (human CD33 I281A (human)): 110 % WT binding | Mean % WT Binding (human CD33 A341S (human)): 95 % WT binding | Mean % WT Binding (human CD33 G304A (human)): 103 % WT binding | Mean % WT Binding (human CD33 C274A (human)): 102 % WT binding | Mean % WT Binding (human CD33 T303A (human)): 77.1 % WT binding | Mean % WT Binding (human CD33 P301A (human)): 99.8 % WT binding | Mean % WT Binding (human CD33 R296A (human)): 93.6 % WT binding | Mean % WT Binding (human CD33 K309A (human)): 93.6 % WT binding | Mean % WT Binding (human CD33 C325A (human)): 101 % WT binding | Mean % WT Binding (human CD33 T292A (human)): 119 % WT binding | Mean % WT Binding (human CD33 N344A (human)): 108 % WT binding | Mean % WT Binding (human CD33 A328S (human)): 119 % WT binding | Mean % WT Binding (human CD33 L316A (human)): 103 % WT binding | Mean % WT Binding (human CD33 V294A (human)): 126 % WT binding | Mean % WT Binding (human CD33 E336A (human)): 98.4 % WT binding | Mean % WT Binding (human CD33 T284A (human)): 120 % WT binding | Mean % WT Binding (human CD33 S326A (human)): 103 % WT binding | Mean % WT Binding (human CD33 A306S (human)): 100 % WT binding | Mean % WT Binding (human CD33 Q311A (human)): 93.6 % WT binding | Mean % WT Binding (human CD33 L343A (human)): 96.2 % WT binding | Mean % WT Binding (human CD33 H339A (human)): 133 % WT binding | Mean % WT Binding (human CD33 K250A (human)): 118 % WT binding | Mean % WT Binding (human CD33 G249A (human)): 114 % WT binding | Mean % WT Binding (human CD33 L229A (human)): 114 % WT binding | Mean % WT Binding (human CD33 T211A (human)): 98.1 % WT binding | Mean % WT Binding (human CD33 G218A (human)): 123 % WT binding | Mean % WT Binding (human CD33 R225A (human)): 99.8 % WT binding | Mean % WT Binding (human CD33 G207A (human)): 104 % WT binding | Mean % WT Binding (human CD33 S248A (human)): 113 % WT binding | Mean % WT Binding (human CD33 N209A (human)): 128 % WT binding | Mean % WT Binding (human CD33 N230A (human)): 100 % WT binding | Mean % WT Binding (human CD33 A261S (human)): 102 % WT binding | Mean % WT Binding (human CD33 T223A (human)): 110 % WT binding | Mean % WT Binding (human CD33 D205A (human)): 0.8 % WT binding | Mean % WT Binding (human CD33 G266A (human)): 110 % WT binding | Mean % WT Binding (human CD33 Q204A (human)): 117 % WT binding | Mean % WT Binding (human CD33 G245A (human)): 122 % WT binding | Mean % WT Binding (human CD33 T253A (human)): 112 % WT binding | Mean % WT Binding (human CD33 R254A (human)): 126 % WT binding | Mean % WT Binding (human CD33 P235A (human)): 112 % WT binding | Mean % WT Binding (human CD33 T240A (human)): 121 % WT binding | Mean % WT Binding (human CD33 L210A (human)): 98.6 % WT binding | Mean % WT Binding (human CD33 L270A (human)): 99.8 % WT binding | Mean % WT Binding (human CD33 I199A (human)): 115 % WT binding
